Key:
Conditions in all cases: protein: recombinant; chain copies: 6; single strand
Hfq WT [1] = biological target: T1, Hfq WT (Escherichia coli, UniProt P0A6X3 1-102); test: ITC; 5 mM MgCl2; N 0.96 RNA/hexamer; second weaker event offset; ITC: 20 mM Tris-HCl pH 7.5, 100 mM NaCl, 20 mM KCl, 30°C; plus 5 mM MgCl2 for U6; Hfq hexamer 10-18 µM in cell
Hfq G34A [2] = biological target: T2, Hfq G34A (Escherichia coli, UniProt P0A6X3 1-102, G34A); test: ITC; 5 mM MgCl2; N 0.83 RNA/hexamer; second weaker event offset; ITC: 20 mM Tris-HCl pH 7.5, 100 mM NaCl, 20 mM KCl, 30°C; plus 5 mM MgCl2 for U6; Hfq hexamer 10-18 µM in cell
Hfq V22A [3] = biological target: T3, Hfq V22A (Escherichia coli, UniProt P0A6X3 1-102, V22A); test: ITC; 5 mM MgCl2; N 1.02 RNA/hexamer; second weaker event offset; ITC: 20 mM Tris-HCl pH 7.5, 100 mM NaCl, 20 mM KCl, 30°C; plus 5 mM MgCl2 for U6; Hfq hexamer 10-18 µM in cell
Hfq WT [4] = biological target: T1, Hfq WT; test: ITC; no Mg2+ listed; N 1.31 RNA/hexamer; ITC: 20 mM Tris-HCl pH 7.5, 100 mM NaCl, 20 mM KCl, 30°C; plus 5 mM MgCl2 for U6; Hfq hexamer 10-18 µM in cell
Hfq G34A [5] = biological target: T2, Hfq G34A; test: ITC; no Mg2+ listed; N 0.75 RNA/hexamer; ITC: 20 mM Tris-HCl pH 7.5, 100 mM NaCl, 20 mM KCl, 30°C; plus 5 mM MgCl2 for U6; Hfq hexamer 10-18 µM in cell
Hfq V22A [6] = biological target: T3, Hfq V22A; test: ITC; no Mg2+ listed; N 1.43 RNA/hexamer; ITC: 20 mM Tris-HCl pH 7.5, 100 mM NaCl, 20 mM KCl, 30°C; plus 5 mM MgCl2 for U6; Hfq hexamer 10-18 µM in cell
Hfq V22A [7] = biological target: T3, Hfq V22A; test: X-ray crystallography; one pA4 traced at distal face (Methods says proximal); 0.2 M LiSO4, 0.05 M zinc acetate, Bis-Tris pH 7.5; ITC: 20 mM Tris-HCl pH 7.5, 100 mM NaCl, 20 mM KCl, 30°C; plus 5 mM MgCl2 for U6; Hfq hexamer 10-18 µM in cell

UUUUUU (ssRNA) [U6]
Kd (Hfq WT [1]): 42.2 ± 12.8 nM
Kd (Hfq G34A [2]): 19.3 ± 8.3 nM
Kd (Hfq V22A [3]): 56.6 ± 7.5 nM

AAAAAAAAAAAAAAAAA (ssRNA) [A17]
Kd (Hfq WT [4]): 51.5 ± 18 nM
Kd (Hfq G34A [5]): 26.3 ± 13.2 nM
Kd (Hfq V22A [6]): 10.5 ± 3.4 nM

AAAA (ssRNA) [pA4]
binding result (Hfq V22A [7]): binds

From paper PMC11770335, “Transcriptome-scale analysis uncovers conserved residues in the hydrophobic core of the bacterial RNA chaperone Hfq required for small regulatory RNA stability”
